Source: a protein production outcome set (Wang et al. 2014)

experiment: label from the status in PepcDB records
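Also: failed if final PepcDB status was selected cloned or expressed and not failed if soluble or beyond.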

Sequence	protein production
MYGGIYVNNGYSPMSSNQQNVSVEHDIIMRGRRVIDITGVKQVESFDSEEFLLETVMGFLTIRGQNLQMKNLDVEKGVVSIKGKVHEMLYIDENQGEKTKGFFSKLFKLEHHHHHH	not failed
MYIHLGDDFVVSTREIVAIFDYKAKTSPIVEEFLSKQKQRIVSSNSTPKSIVVTLQSIYFSPLASGTLKKRAQSKPEIDSLEHHHHHH	failed
MYIICSQFSASEPVNPYALLGAAIVSELLGTTSLKLSEGFSRPVPSLGVVVGYGLAFYLVSLTLEDLPIGVVYGTWAALGIVGVAAIGIVVFDEPIDLPGAVGILLIIIGVYCVNVLSEMSAH	failed
MYKILEKKEIAMRNTWYKVYAPHVAKKVQPGQFVIVRAFPNGERIPLTPVMWDREEGWIVLIVFTRGKTTMRMAVELKEGDSLLNVAGPLGTPVPMEKFGKILAIGAYTGIVEVYPIAKAWQEIGNDVTTLHVTFEPMVILKEELEKAVTRHIVEPVPLNPNQDFLANMKNVSQRLKEKVRELLESEDWDLVFMVGPVGDQKQVFEVVKEYGVPMKVDLHPIMVDGTGMCGACRVTVGGEVKFACVDGPEFDAYQVDWDELIHRVGFYAKLEKLALEKYMEELKAKGVILEHHHHHH	failed
MYKNILILGRGIGQVMFQNNALSGGLMLLGIAFNSWQLAVLSVLGTVVSTLTASLSGYDKEDIRNGLYGFNGTLVGIAIGVFMEINVTSILLLISGSAFSTWVARCFRYQNRVSGLTAPFIFVVWLLLVGCHYLYPSLLLSSSLEKPELTMDIFRSFCLNIGQVMFQGNILSGLFFLLGILINSRMNALYTLTGAILPLFMILYPHTDLAAWNLGLLGYNGVLCAIALGDKTGIGVVKAIFSIILSIVLQLTGMHMGIVTLTAPFVFSVWITGGLFSVFRSKS	failed
MYLEKINSPEDVKKLSIDEMKDLSTEIREVLLKKLSEHGGHIGPNLGIVELTIALHYVFNSPKDKIVYDVSHQSYIHKMLTGRKEAFINSEKYDEVSGYSNPEESEHDFFNIGHTSTSISLACGLAKARDVKDETDNVIAIIGDGSLSGGEAYEGLNNAAETGTNMIIIVNDNDMSIAENHGGLYKNLKELRDTEGKSECNFFKAMGLDYHYVKDGHDLEQLIGVFNKVKDTKQPVVVHIHTVKGKGFKFAEKNKEQWHWGMPFVLETGASKVSMGSAENYGNLTGEYLLDYMKRDPKVVAITSGTPAVFGFWKERRNEAGRQFVDVGIAEEHAVALASGIAANGGNPVYGVYSTFLQRTYDQLSQDLCINNNPAVLLVFAASVYGMNDVTHLGLYDIGMMSNIPNMVYLAPTCKEEYFAMLKWAMIQKDHPVAIRVPAMGVIESGVVDNTDYSKLNKYEVTKAGKDVAVIALGDFYQLGQSVTEKLSQENGINATLINPKYITGIDEELLEGLKKEHKLVITLEDGILDGGFGEKIARYYGASDMKVLNYGIKKELLDRYVPDELMKKNRLTDVQIVEDIMNIIK	failed
MYLKELSMMPGVSGDEGKVRDFIKSKIEGLVDNLYTDVLGNLIALKRGRDSSKKLLVSAHMDEVGFVVSKIEKDGKVSFLPVGGVDPRILPGKVVQVKNLKGVIGYRPIHLQRDEENTPPRFENLRIDFGFSSADEAKKYVSIGDYVSFVSDYIEKNGRAVGKAFDDRAGCSVLIDVLESGVSPAYDTYFVFTVQEETGLRGSAVVVEQLKPTCAIVVETTTAGDNPELEERKWATHLGDGPAITFYHRGYVIPKEIFQTIVDTAKNNDIPFQMKRRTAGGTDAGRYARTAYGVPAGVISTPARYIHSPNSIIDLNDYENTKKLIKVLVEEGKIVEVVS	not failed
MYLPTHFKQENQAELFDLIEHHPLGTLIVMHADGLEVNHIPFELDRLHLPAGILRGHIAKANPLASLLSEPQSAYVIFQAEQHYISPNWYPGKQEHHRVVPTWNYRVVHATGQLSVIEDQKYLRGVLARLTRQHEADQPAPWRLSDAPADFIEQQLEKIMAIEFNIESIIGKFKLSQN	failed
MYLPTHFKQENQAELFDLIEHHPLGTLIVMHADGLEVNHIPFELDRLHLPAGILRGHIAKANPLASLLSEPQSAYVIFQAEQHYISPNWYPGKQEHHRVVPTWNYRVVHATGQLSVIEDQKYLRGVLARLTRQHEADQPAPWRLSDAPADFIEQQLEKIMAIEFNIESIIGKFKLSQNRSQADVAGVIAALNELEPQIANSIHKFYPK	failed
MYLTCRFEESKSAEKAVVALEESTSGEPKTPTESHEKLRKVRSDQGSSTTSSNQENIGSSSVSFRNQVLQSTVTNQKQDSPIPVESNREKAASKEVEAGSQSTNEGIAGQSSSTEKPKEEESAKQRWSRSQREAALMKFRLKRKDRCFDKKHLKQIQDQTDSMEMYKNGLQVRYQSRKKLAEQRPRVKGQFVRTVNSDASTKS	failed
MYLTLTIAAMPAYNEAHVIAEVILGCKKYVDNVIVVDDGSSDNTAEVARSAGGYVVKHEVNKGYGAALKSCFKLAREFNADVMIIMDSDGQHNPDEIPRLLEPLKHGADLVIGSRFINGNGKNVPAYRKVGMKILDIATYLAGGILVTDSQSGFRAYGKKAIENVRFDGNNMSAGSEILLYIKDHNLKFTEVEIHCRYDLDQCSSQNPFLHGMEVAFQILKNMGFRRPLYYFTVPGILLIAAGLLIEIAFLHLVGSFGFGVISLIFLMILTGIFMVFTGVILHLVSKMISQIVPGQKGTESLNDGF	failed
MYLTREEERILAGEEGEARAKALEVIVKVGEAVGAERLIPIKHAHVSGASYMTIGDAGLRFLARLAESGARFSVPTTVNPVSYDVEEPGAIPMTRLSPRIVKAQSEILKALEAMGADLILTCTPYYTEVPRRVGLREGDSVAWGESSAVAYANSVLGIHTNREGGPLALMAGIAGRTYFYGAHDPEWRKPRVAYRLETPKVLDETEAGVLGEVIATQHRDEHPPLLDAPLGGEAALKEFSAAVGSAGSLAMVHITGVTPGDPGDMIEEVVTMDYGDLARRMEDLAPGFEPDILYVGCPHASIEELRRLYRALSKAGERAGRRTVVSISRSLYLQALREGLVEKLKGLGVRFVRDSCLIVSPFSSGARGVRVATNSYKAYFYLSKKGVEVGLAPIEALPKLVS	failed
MYLTVTPLSIVALTTAPPYFDTNGSISVPPPPNVIRSGLYESITLEYHKYTIKYCLTLITQTILFFLIVVCSMKVVIFGGTGLIGRAIYSSLPHDFYIVSRSAKGQEGQAHIIGLDEIDKIKECDVVINLSGYSIASKRWNRKVKEEIVRSRIDTTRLVVNFIRNLEKKPSAFLSGSAIGFYGHNTNKELTEEDPFGSGFLADLARSWEEEAMQADGICRTVLLRTANFLSPKGGFLSALINPKSKNVMYFGDGRQPVSWMHYADYVKAVEFVIENASIAGPVNMSSPQPVTFKEFAEAFSKSLGSHIRSIPEFLGKIALGSEMYRELMSGQKVIPKKLIQAGFKFDFPDINTAASSIASLMK	failed
MYMILELLNIIGIIAFTISGSLKGTNKGLDIFGVVTLGVITSYAGGIIADILLGIYPPQILKELNYLLLSVGISIFVFYFYKWLQTNPIKMIIAISDAVGLSTFATLGASLAYSYGLNPISVGLIAAIVGTGGGVIRDVLVNEIPMVLTKEIYATAALLSGFIYYFTTPYLHHDSLFVAFLGSFLLRILSIKYNFNLPKREDNKS	failed
MYMKHIENGTRIEGEYIKNKVIQYNMSILTDEVKQPMEEVSLVVKNEEGKIFGGVTGTMYFYHLHIDFLWVDESVRHDGYGSQLLHEIEGIAKEKGCRLILLDSFSFQAPEFYKKHGYREYGVVEDHPKGHSQHFFEKRL	not failed
MYNPVGVAAIGLGRWAYVMADAYTKSEKLKLVTCYSRTEDKREKFGKRYNCAGDATMEALLAREDVEMVIITVPNDKHAEVIEQCARSGKHIYVEKPISVSLDHAQRIDQVIKETGVKFLCGHSSRRLGALRKMKEMIDTKEIGEVSSIEAVFSNERGLELKKGNWRGEPATAPGGPLTQLGVHQIDNLQFLLGPVARVFNFGKPMYTEVENITVNQTLLEFEDGKQAYLGTNWACPGVFSINVYGTKANLFYQLDFSWWSNSDVTDEHSTLIKREFASMSDDPDNRILRDVKVDFESVDHLRVEVEEVADVIRNGGETEIGAEASLRNLAVVLAAVKSVHEKRPVEIAEIIG	not failed
MYNRPNWQRRRRSLLVLVLGLLFLGFLIQPSYQWTKTNVAAMAGRHDSQMSPIIMIPGSSATQNRFDTLVKQLNKADHRRHSLIKLTVMTDDTIKMTGSLRARDNEPIIVVGFQNNRDGYDNIKHQARWFSLAFKKLAAKYQFNNFKAIGHSNGGLIYTYYFEHYFNRDDIKVKRIMTIGSPYNFSEANLNHKTQMLADFIKYRDRLPKSATMYSVAGTENYDSDGLVPARSVEAGKYIYQGQVKHFTEITVTGTNAQHSDLPQNAQIVTLIRTYMLDKPKQTRKGLVSTGTVE	failed
MYNSATVIYQNLLKSTPKKASEYYYYLGDICWRKEKTDSAKYYFMEGIKTDETYAMNYVGIGIITMKSNATEGQRSFDKALQMTSQKNSQVLNAIGEYYILEADKAELPKGIALLKKSTEIDAKNAMSWILLGDAYGKQAEGSKQAESYGKAANLFHSVPLLKMKYGKMYAAARNKDLSIKYYNEGLAADPTYGPIYRELGDLYNRFRQYDLAIQNYKKYLTYIDSNDDVEFRYADFLFKNNNYAEAIEVFNKLEAKKYNSPYIYNRRAVCYYELAKYDLAQKDIETYFSKVNATKAKSADFEYYGKILMKKGQDSLAIQQYQAAVDRDTTRLDMYGQIGSYFYNKGNFPLAIQYMSKQIRPTTTDPKVFYELGQAYYYNKEYVKADSSFVKVLELKPNIYIGYLWRARANAAQDPDTKQGLAKPYYEKLIEVCAPGGAKYKDELIEANEYIAYYYTINRDKVKADAAWKNILALDPTNKKAIDGLKMK	failed
MYPDLVHLGGADKYFEEILEIVNKIKLFGDFSNEEVRYLCSYMQCYAAPRDCQLLTEGDPGDYLLLILTGEVNVIKDIPNKGIQTIAKVGAGAIIGEMSMIDGMPRSASCVASLPTDFAVLSRDALYQLLANMPKLGNKVLIRLLQLLTARFRESYDRILPKTLGELI	not failed
MYPLAFAKEGEEVIVKKIDAGCGAMQRLVSMGINIGSKLKVIRNQNGPVIISTKGSNIAIGRGLAMKIMVEDAEYGGENEKLLEHHHHHH	failed
MYRNDPILPTFALILAAGLFYAAYLDGRHIARLLGHVPEELSVGQIGLMAFGAVLLLYGLMGLVSYWLEGIELRPGRHFPTPSTAPVAAGVILVLLLTALSGFFVRLLVYSAQTGHNPTWLQGLIFGSISLVVAALFGIYRRFFGREEVITEEEKSEFPW	failed
MYSDKKNILQLVALLKAHGVRKIVLCPGSRNAAIVHTLANIEDFTCYSVTDERSAGFFAIGLSLQGGGPAAVCCTSGSALLNLHPAVAEAFYQQVPLIVISADRPAAWIGQMDGQTLPQPHVFGTLVKMSVNLPEVHTEEDEWFCNRLINEAILETTHHGKGPVHINVPISEPIYRFTAKTLPEVRVITRYQGL	failed
MYTECAYITVINNKARLFFMNMKTSFIAAAVALATVYSFSVSAVQKDITVTANIDSTLELLQADGSSLPSTMKLDFMPGKGLVHKSLQTRLYSNDQTKSVNVKLLNAPQLINVLDPTKTIDMEVTLGGRSLTTTNSVLEAKTLFPDGKTGDASALLNLDIGQKAGAALQNLPAGEYSGLVSLVISQAVTAGLEHHHHHH	failed
MYTKQHTIKAPVKVSGVGLHTGAQVNLTFVPAPINHGILFKRVDLPDQPVVECDVDNVVDVSRGTSIEKNGARINTVEHALAALVGLQIDNILIELDGPEIPIMDGSSLPFIEAINAIGLEEQNALRNFFEVPHGIFFQDAEKNIELAALPLDDYRVTVMVDYNSPVLGSQHATLNNINQFEKEIASCRTFCFLHELEMLHKQNLIKGGDLNNAIVIVDRIVKDDELDSLAKLFGKDKVEVKKEGILNNIELRYKNEPARHKLLDVVGDLALVGRPLKAQIMAARPGHASNVAFAKKLKRVMMDSRQKAPHYDITQPSVLDVNQIYKLLPHRYPFKLVDKIVHLDENMIIGVKNVTINEPFFEGHFPGNPVMPGVLQIEAMAQTGGIFVMQSVPDPENYWTYFLSIESAKFRRMVVPGDTLVFKCELTAPIKRGIAKMQGQAYVGGNLVCEASLTASIVKKK	failed
